# Assay results: publication PMC10450195, “Histone divergence in trypanosomes results in unique alterations to nucleosome structure” (Nucleic Acids Research, 2023)
# T1: Trypanosoma brucei histone H2A (Trypanosoma brucei brucei, UniProt Q57YA3 2-134)
# T1 construct: also called Tb H2A
# T1 sequence: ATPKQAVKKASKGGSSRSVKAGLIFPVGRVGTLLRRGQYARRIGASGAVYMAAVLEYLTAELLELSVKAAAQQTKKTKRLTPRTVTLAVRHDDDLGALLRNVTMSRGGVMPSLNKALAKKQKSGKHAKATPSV
# B1: Trypanosoma brucei histone H4 (natural protein)
# chain: not shown
# notes: also called Tb H4
# B2: Trypanosoma brucei histone H2B (natural protein, Trypanosoma brucei brucei)
# chain: ATPKSTPAKTRKEAKKTRRQRKRTWNVYVSRSLRSINSQMSMTSRTMKIVNSFVNDLFERIAAEAATIVRVNRKRTLGARELQTAVRLVLPADLAKHAMAEGTKAVSHASS
# notes: also called Tb H2B
# Experiments:
# [1] = biological target: B2; assay: cryo-EM structure; conditions: both partners purified
# [2] = biological target: T1, Trypanosoma brucei histone H2A; assay: cryo-EM structure; conditions: both partners purified
binder,measurement,setting,value
B1,binding result,[1],binds
B2,binding result,[2],binds
